Target: T1, murine DLL3 (murine, UniProt O88516 33-592)
T1 construct: whole, on cells; Expressed endogenously on the murine SCLC (mSCLC) cell line; also called mDLL3; mouse DLL3
T1 sequence (looked up): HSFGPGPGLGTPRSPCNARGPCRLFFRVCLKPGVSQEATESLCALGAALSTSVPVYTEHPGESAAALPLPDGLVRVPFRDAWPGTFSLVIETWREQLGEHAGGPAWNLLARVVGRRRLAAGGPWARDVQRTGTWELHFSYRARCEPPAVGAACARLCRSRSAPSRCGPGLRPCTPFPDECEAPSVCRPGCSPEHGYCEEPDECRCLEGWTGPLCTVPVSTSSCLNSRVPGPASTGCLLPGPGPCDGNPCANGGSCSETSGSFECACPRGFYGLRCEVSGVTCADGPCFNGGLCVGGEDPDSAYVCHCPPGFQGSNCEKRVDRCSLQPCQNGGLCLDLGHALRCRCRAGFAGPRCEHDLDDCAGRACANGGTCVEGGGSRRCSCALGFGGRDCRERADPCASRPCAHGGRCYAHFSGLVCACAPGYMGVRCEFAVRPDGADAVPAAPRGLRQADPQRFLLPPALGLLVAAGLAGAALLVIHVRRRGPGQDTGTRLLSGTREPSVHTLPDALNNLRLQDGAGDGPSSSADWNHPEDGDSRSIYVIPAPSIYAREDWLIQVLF
Assay: told in words; shown by lysis and IFN-γ release of CAR T cells in coculture with mSCLC cells that express murine DLL3
Procedure: The CAR consists of the SC16.8 single-chain variable fragment (scFv) and murine CD28 and CD3ζ domains. FIG. 2B measures the IFN-γ levels in supernatant of 24-hour coculture of murine CAR T cells with or without mSCLC cells. **P<0.01, ****P<0.0001 (2-way ANOVA, n=2). FIG. 2C depicts the survival of mice with metastatic mSCLC that were treated with the indicated doses of SC16.8m28mz CAR T cells (day 7) with or without 50 mg/kg cyclophosphamide pretreatment (day 6). **P<0.01 (log-rank test, n=4-6). FIG. 2D is a schematic of CAR design with SC16.8 scFv, murine CD28 and CD3ζ signaling domains, and the murine 1112 fusion transgene or murine 1118 transgene. IRES, internal ribosome entry site. FIG. 2E illustrates IFN-γ production by the respective CAR T cells in the absence and presence of mSCLC cells. *P<0.05, **P<0.01, ***P<0.001, ****P<0.0001 (2-way ANOVA and Student's t test, n=2-3). FIG. 2F depicts a luciferase killing assay with SC16.8 CAR T cells that express IL-12, IL-18, or no cytokine and 4H11 CAR T cells as negative control (n=3). FIGS. 2G and 2H depict serum IFN-γ and TNF-α levels (n=12-15) (2G) and circulating CAR T cells (n=5) (2H) in the blood of mice collected 3 days after treatment with the indicated CAR T cells. **P<0.01, ***P<0.001, ****P<0.0001 (1-way ANOVA). […] FIG. 2J illustrates the survival of mice in FIG. 2I. *P<0.05, ****P<0.0001 (log-rank test). […]

B1: SC16.8m28mz CAR (SC16.8 scFv with Flag-tag, murine CD28 transmembrane and intracellular domain and murine CD3zeta intracellular domain, on murine T cells) (scFv, V domains shown)
VH: QAQLQQSGAELVRPGTSVKVSCKASGYAFTNYLIEWVKQRPGQGLEWIGVINPGTGGTNYNENFKGKATLTADKSSSTAYMQLSSLTSDDSAVYFCARSPYDYHEGAMDYWGQGTSVTVSS
VL: EIQMTQSPSSMSASLGDRITITCQATQDIVKNLNWYQQKPGKPPSFLIYYAIELAEGVPSRFSGSGSGSDYSLTISNLESEDFADYYCLQFYEFPFTFGAGTKLELK
notes: Tested as a membrane CAR on transduced murine T cells; VH and VL are joined as an scFv; also called SC16.8 CAR (murine CAR T cells); the presently disclosed CAR
binding result: binds
